This data set deals with MS2 coat protein. Put plainly: apparent KD of MS2 coat protein; designed switch direction (-1 OFF switch, 1 ON switch): -1; higher = weaker reporter binding. The procedure, abridged: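 Transcription of designed RNA switches on Illumina chips was done by stalled E. coli RNA polymerase. SNAP-549-labelled MS2 coat protein was then titrated in doubling steps from 0.7 or 1.5 nM to 3 µM, with steps of 0.8–1.5 h at the lowest and 10–20 min at the highest concentration. The per-design median over clusters of curve-fitted normalised fluorescence is reported as apparent KD.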

Setting [1] is: Eterna round: R95, input ligand: FMN 200 uM.
[2] abbreviates: Eterna round: R95, input ligand: microRNA oligo, concentration not stated.
Setting [3] is: Eterna round: R95, input ligand: none.
[4] abbreviates: input ligand: microRNA oligo, concentration not stated.

As to “CGGUGUAGAGGAUAUACGUGAAGAUAAGAAAAUAAUAAUUAACAUGAGGAUCACCCAUGUAGAAGGCUAUAGCG [JR_Ex2_Sub082] (Eterna round: R97, puzzle: Exclusion 2)”, the “apparent KD of MS2 coat protein” value is 66.3 nM (input ligand: FMN 200 uM) and 24.9 nM (input ligand: none).

Consider “CGUAAGCUAGGAUAUGCUUUGGGAAAGCAUUCCUUCGAUAAACUUGAGGAUCACCCAAGUAGAAGGAGCUUACC [salish99_ex2_r4_009] (Eterna round: R97, puzzle: Exclusion 2)”, for which the “apparent KD of MS2 coat protein” value was 11.7 nM (input ligand: FMN 200 uM) and 11.5 nM (input ligand: none).

“CGUAAGCUAGGAUAUGCUUUGGGAAAGCAUUCCUUCGAUAAACUUGAGGAUCACCCAAGUAGAAGGAGCUUACU [salish99_ex2_r4_011] (Eterna round: R97, puzzle: Exclusion 2)”: the “apparent KD of MS2 coat protein” value was found to be 19.5 nM (input ligand: FMN 200 uM) and 12.5 nM (input ligand: none).

As for “CGUAAGGUAGGAUAUACAUGAGGAUCACCCAUGUCCCACCCGUUACCUAUGACCAUAUGUAGAAGGACCAAUGC [Exy#10] (Eterna round: R97, puzzle: Exclusion 3)”, the “apparent KD of MS2 coat protein” value (input ligand: FMN 200 uM) was 20.7 nM and the “apparent KD of MS2 coat protein” value (input ligand: none) turned out to be 22.7 nM.

On to “CGUACUGAAGUGAGGAUAUUGUCUCGGAUACGAAACAAGAAGGCACAUGAGGAUCACCCAUGUUAACAGUACGA [Malc #30 mod 9] (puzzle: Brourd's mod of Exclusion 4)”, for which the “apparent KD of MS2 coat protein” value is, setting by setting: under setting [1], 15.2 nM; under setting [2], 19.2 nM; under setting [3], 14.5 nM.

As for “CGUCAGUGAGGAUAUGGUAACGUUUACAUGAGGAUCACCCAUGUUUCAUGGGACUAGAGACUAGAAGGUACUGACG [EX5 #42] (Eterna round: R97, puzzle: Exclusion 5)”, the “apparent KD of MS2 coat protein” value was determined as 189 nM (input ligand: FMN 200 uM) and 132 nM (input ligand: none).

Turning to “CGUCUGUAAGGAUAUGGUAGCAUCAACAUGAGGAUCACCCAUGUUACAUGGGACUAGUGAUUAGAAGGUACGAACG [EX5 #56] (Eterna round: R97, puzzle: Exclusion 5)”, the “apparent KD of MS2 coat protein” value (input ligand: FMN 200 uM) was found to be 58.5 nM and the “apparent KD of MS2 coat protein” value (input ligand: none) was determined as 80.6 nM.

For “CGUCUGUAAGGAUAUGGUUACAUCGACAUGAGGAUCACCCAUGUGACGUGGGACUAGUGAUUAGAAGGUACGAACG [EX5 #65] (Eterna round: R97, puzzle: Exclusion 5)”, the “apparent KD of MS2 coat protein” value reads like this: (input ligand: FMN 200 uM) 55.2 nM; (input ligand: none) 59.4 nM.

Consider “CGUCUGUAAGGAUAUGGUUGCAUCGACAUGAGGAUCACCCAUGUAACGUGGGACUAGUGAUUAGAAGGUACGAACG [EX5 #61] (Eterna round: R97, puzzle: Exclusion 5)”, for which the “apparent KD of MS2 coat protein” value reads like this: (input ligand: FMN 200 uM) 110 nM; (input ligand: none) 133 nM.

Consider “CGUGACUCAGGAUAUCUAUAAUAUCACAUGAGGAUCACCCAUGUCCAGCGAAAGCUGGAGGGAGAAGGGAGUCACG [Fiskers Ex 5 - 35] (puzzle: Exclusion 5)”, for which the “apparent KD of MS2 coat protein” value was 32.8 nM under setting [1], 164 nM under setting [2] and 146 nM under setting [3].

In the case of “CGUGACUCAGGAUAUUCAUAAUAUCACAUGAGGAUCACCCAUGUCCAGCGAAAGCUGGAGGGAGAAGGGAGUCACG [Fiskers Ex 5 - 37] (puzzle: Exclusion 5)”, the “apparent KD of MS2 coat protein” value under setting [1] is 56.7 nM, the “apparent KD of MS2 coat protein” value under setting [2] came to 151 nM and the “apparent KD of MS2 coat protein” value under setting [3] stood at 99.6 nM.

For “CGUGACUGAGGAUAUCUAUAAUAUCACAUGAGGAUCACCCAUGUCCAGCGAAAGCUGGAAGGAGAAGGCAGUCACG [Fiskers Ex 5 - 34] (puzzle: Exclusion 5)”, the “apparent KD of MS2 coat protein” value is, setting by setting: under setting [1], 39.3 nM; under setting [2], 21.4 nM; under setting [3], 25.1 nM.

With “CGUGAGCGCGUCAGGAUAUGGCGGCGGCGGCGGCGCCAGAAGGGACAUGAGGAUCACCCAUGUUGCGUGCGUGG [Prefect Broudrd's mod of Exclusion] (Eterna round: R97, puzzle: Brourd's mod of Exclusion 4)”, the “apparent KD of MS2 coat protein” value by setting is: (input ligand: FMN 200 uM) 73 nM; (input ligand: none) 39.3 nM.

In the case of “CGUGGACAUAACAAGCUUUACAUGAGGAUCACCCAUGUGAUCAUGCUCGUCUUAUGGUCCACGAAUUAAUUAAUUAG [Stov1/6-C2] (Eterna round: R97, puzzle: Sensor, turn-off variant 1)”, the “apparent KD of MS2 coat protein” value stood at 19.2 nM (input ligand: FMN 200 uM) and 18.3 nM (input ligand: none).

With “CGUGUCUUUCACGUGAGUGGUGGGUGCAACAGGUGGGAAACAUGAGGAUCACCCAUGUCCUCACUUGCUCGUCUUUU [Grok-var2-03] (puzzle: Sensor v3, turn-off variant 2)”, the “apparent KD of MS2 coat protein” value runs as follows: under setting [1], 27.1 nM; under setting [2], 109 nM; under setting [3], 26.1 nM.

Take “CGUGUCUUUCACGUGAGUGGUGGGUGCAACAGGUGGGUUACAUGAGGAUCACCCAUGUCCUCACUUGCUCGUCUUUU [Grok-var2-04] (puzzle: Sensor v3, turn-off variant 2)”: the “apparent KD of MS2 coat protein” value is, setting by setting: under setting [1], 36.1 nM; under setting [2], 109 nM; under setting [3], 37.2 nM.

“CGUGUGUGAGGAUAUGACAAUGGUAUCUUCGGAUACCAUUGUCAGAAGGUACAUGAGGAUCACCCAUGUAGAUC [Exclusion 4 - Mod Brourd Ex 4-3: 20 v.2] (Eterna round: R96, puzzle: Exclusion 4)”: the “apparent KD of MS2 coat protein” value amounted to 115 nM (input ligand: FMN 200 uM), 41.4 nM under setting [4] and 59.8 nM (input ligand: none).

Take “CGUGUGUGAGGAUAUGACAAUGGUAUCUUCGGAUACCAUUGUCAGAAGGUACAUGAGGAUCACCCAUGUAGAUC [Exclusion 4 - Mod Brourd Ex 4-3: 20 v.2] (puzzle: Exclusion 4)”: the “apparent KD of MS2 coat protein” value under setting [2] was found to be 35.6 nM.

In the case of “CGUUCCACAGGAUAUACAAAACGUAUCCCAGGGCUAACAGGACAUGAGGAUCACCCAUGUAGAAGGGUGGAACU [Eternabot (L1) Solution 36] (Eterna round: R97, puzzle: Exclusion 2)”, the “apparent KD of MS2 coat protein” value reads like this: (input ligand: FMN 200 uM) 571 nM; (input ligand: none) 674 nM.

“CGUUCGCGAGGAUAUGCAUUCGAGUCCACUACGUGUCUGGGACUUGAGGAUCACCCAAGUAGAAGGCGCCUCAC [salish99_ex2_r4_648] (Eterna round: R97, puzzle: Exclusion 2)”: the “apparent KD of MS2 coat protein” value came to 83.9 nM (input ligand: FMN 200 uM) and 135 nM (input ligand: none).

As to “CGUUCUCACGUCAGGAUAUAGGACUUGCACGUGUGCUAGAAGGGACAUGAGGAUCACCCAUGUAAAUAAGAAAG [Quonbi] (Eterna round: R97, puzzle: Brourd's mod of Exclusion 4)”, the “apparent KD of MS2 coat protein” value is, setting by setting: (input ligand: FMN 200 uM) 37.5 nM; (input ligand: none) 27.1 nM.

Regarding “CGUUCUCGAGUCAGGAUAUCGACUAAUUCCCAAGUCGAGAAGGGACAUGAGGAUCACCCAUGUAAAGAAAAGAA [Ainteedle] (puzzle: Brourd's mod of Exclusion 4)”, the “apparent KD of MS2 coat protein” value under setting [1] amounted to 118 nM, the “apparent KD of MS2 coat protein” value under setting [2] was found to be 30.1 nM and the “apparent KD of MS2 coat protein” value under setting [3] was determined as 30.3 nM.

With “CGUUGAUGAGGAUAUCGAUGUUAGUACAUGAGGAUCACCCAUGUUAUCCAAGUGUCGUUUCGAGAAGGUAUUGGAC [LRO-Ex5-20] (puzzle: Exclusion 5)”, the “apparent KD of MS2 coat protein” value under setting [2] came out at 174 nM.

In the case of “CUAAACGCAGGAUAUACAUGAGGAUCACCCAUGUUUGGCCAGUAAACAAGUCGUCUUAGUAGAAGGGCGUUUAG [Eternabot (Original) Solution 42] (Eterna round: R97, puzzle: Exclusion 3)”, the “apparent KD of MS2 coat protein” value was found to be 544 nM (input ligand: FMN 200 uM) and 40.1 nM (input ligand: none).

Turning to “CUAAAUCAUGUAGGAUAUGCGUGGCAAAGCUAUGCAGAAGGACAUGAGGAUCACCCAUGUGCUUCCGUCUGAGAACAGACGGUA [Mat - Exclusion NG 1 - Mod of JL - D23] (Eterna round: R96, puzzle: Exclusion NG 1)”, the “apparent KD of MS2 coat protein” value was 306 nM (input ligand: FMN 200 uM), 49.6 nM under setting [4] and 68.2 nM (input ligand: none).

On to “CUAAAUCAUGUAGGAUAUGCGUGGCGAAGCUAUGCAGAAGGACAUGAGGAUCACCCAUGUGCUUCCGUCUGAGUACAGACGGAA [Mat - Exclusion NG 1 - Mod of JL - D25] (Eterna round: R96, puzzle: Exclusion NG 1)”, for which the “apparent KD of MS2 coat protein” value (input ligand: FMN 200 uM) turned out to be 77.2 nM, the “apparent KD of MS2 coat protein” value under setting [4] is 160 nM and the “apparent KD of MS2 coat protein” value (input ligand: none) was 232 nM.

In the case of “CUAACAUGCUGGUGAUCAUACAUGAGGAUCACCCAUGUAACAAGCUUUUUGCUCGUCUUAAUUUAAUUGAUUACUAG [Stov1/8-A3] (Eterna round: R97, puzzle: Sensor, turn-off variant 1)”, the “apparent KD of MS2 coat protein” value came to 88.9 nM (input ligand: FMN 200 uM) and 113 nM (input ligand: none).

Regarding “CUAACGAAAGGAUAUAUGGCAUGAGACAUGAGGAUCACCCAUGUGAACCACCUACAGUACAUAGAAGGUUCGCUAG [Eternabot (Original) Solution 18] (Eterna round: R97, puzzle: Exclusion 5)”, the “apparent KD of MS2 coat protein” value by setting is: (input ligand: FMN 200 uM) 65.9 nM; (input ligand: none) 94.6 nM.

In the case of “CUAAUACAUCAGGAUAUCUUAGCCUAUAGCAUAAGAGAAGGGAUGACAUGAGGAUCACCCAUGUCAAAGGGUGA [eternacac ex6r4 sub20] (Eterna round: R97, puzzle: Exclusion 6)”, the “apparent KD of MS2 coat protein” value (input ligand: FMN 200 uM) is 304 nM and the “apparent KD of MS2 coat protein” value (input ligand: none) was determined as 929 nM.

As to “CUAAUAUAUCAGGAUAUGAUUAUAUGUGUUAGAUCAGAAGGGAUAACAUGAGGAUCACCCAUGUUGUGGAGUGA [JR_Ex6_Sub035] (Eterna round: R97, puzzle: Exclusion 6)”, the “apparent KD of MS2 coat protein” value (input ligand: FMN 200 uM) is 67.3 nM and the “apparent KD of MS2 coat protein” value (input ligand: none) is 64.2 nM.

Regarding “CUACCCUGAGGAUAUCCACCGUGAUACAUGAGGAUCACCCAUGUUAAUGCCUGAGUUCCCGGAGAAGGCAGAUUCC [Megrez2] (Eterna round: R97, puzzle: Exclusion 5)”, the “apparent KD of MS2 coat protein” value turned out to be 27.2 nM (input ligand: FMN 200 uM) and 30.5 nM (input ligand: none).

The record behind these values is the supplement of paper PMC9170038.
